Experimental data from publication PMC5206748, “Disruption of cell adhesion by an antibody targeting the cell-adhesive intermediate (X-dimer) of human P-cadherin” (Scientific Reports, 2017).

T1: human P-cadherin MEC1 (additional Met + residues 1-129) (Homo sapiens)
T1 construct: numbers count on: the mature protein; source: E. coli Rosetta2 (DE3), purified (Ni-NTA, SUMO tag cleaved with Ulp1, SEC)
T1 chain: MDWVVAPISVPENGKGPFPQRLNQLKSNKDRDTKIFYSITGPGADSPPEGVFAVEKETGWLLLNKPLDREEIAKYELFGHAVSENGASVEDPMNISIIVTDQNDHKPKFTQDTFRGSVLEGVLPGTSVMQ


Legend:
Details in all cases: both partners purified
human E-cadherin EC12 [1] = biological target: T2, human E-cadherin EC12 (Homo sapiens, UniProt P12830); test: SEC; the solution left in the ITC cell (antibody 25 μM titrated with human E-cadherin EC12 250 μM at 30 °C) injected on Superose 12 10/300 GL; 0.5 mL/min; 25 °C; 10 mM HEPES, 150 mM NaCl, 3 mM CaCl2, pH 7.5
T2 construct: human E-cadherin, domains EC1-EC2; also called E-cad EC12; source: E. coli Rosetta2 (DE3), purified (Ni-NTA, SUMO tag cleaved with Ulp1, SEC)

[2] = biological target: T3, human P-cadherin EC12 K14E (residues 1-213) (Homo sapiens, UniProt P22223, point mutant); test: ITC; iTC200; antibody in the cell (15-30 μM), P-cadherin construct in the syringe (150-300 μM); 15 °C; one-site binding model
T3 construct: human P-cadherin, residues 1-213 with K14E; numbers count on: the mature protein; also called strand-swap dimer construct; source: E. coli Rosetta2 (DE3), purified (Ni-NTA, SUMO tag cleaved with Ulp1, SEC)

[3] = biological target: T4, human P-cadherin MEC12 K14E (additional Met + residues 1-213) (Homo sapiens, point mutant); test: as above
T4 construct: human P-cadherin, residues 1-213 with K14E; numbers count on: the mature protein; also called monomer construct; source: E. coli Rosetta2 (DE3), purified (Ni-NTA, SUMO tag cleaved with Ulp1, SEC)
T4 sequence (chain, as listed by the source point mutant | K14E K14E): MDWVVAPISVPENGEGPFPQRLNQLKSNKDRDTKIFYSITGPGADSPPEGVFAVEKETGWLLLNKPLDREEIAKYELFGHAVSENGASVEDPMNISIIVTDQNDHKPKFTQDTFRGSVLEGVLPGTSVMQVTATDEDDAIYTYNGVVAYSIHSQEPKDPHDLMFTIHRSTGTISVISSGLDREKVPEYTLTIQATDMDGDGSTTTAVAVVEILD

[4] = biological target: T5, human P-cadherin MEC12 (additional Met + residues 1-213) (Homo sapiens); test: as above
T5 construct: numbers count on: the mature protein; also called X-dimer construct; source: E. coli Rosetta2 (DE3), purified (Ni-NTA, SUMO tag cleaved with Ulp1, SEC)

[5] = biological target: T1, human P-cadherin MEC1 (additional Met + …); test: SPR; Biacore T200; MEC1 immobilised on a CM5 chip by amine coupling (~250 RU); scFv as analyte, 0.49-62.5 nM; 25 °C; 10 mM HEPES, 150 mM NaCl, 3 mM CaCl2, pH 7.5, 0.05% Tween-20; global fitting
human P-cadherin MEC1 = biological target: T6, human P-cadherin MEC1 (Homo sapiens, UniProt P22223); test: SPR; MEC1 immobilised on a CM5 chip by amine coupling (~250 RU); antibodies as analyte 0.49-62.5 nM; 25 °C; 10 mM HEPES, 150 mM NaCl, 3 mM CaCl2, pH 7.5, 0.05% Tween-20; global fitting
T6 construct: additional Met before the N-terminus; P-cadherin (cadherin-3), human, extracellular domain EC1; source: E. coli Rosetta2 (DE3), SUMO fusion, Ni-NTA, SUMO cleaved with Ulp1, SEC

human E-cadherin EC12 [6] = biological target: T7, human E-cadherin EC12 (Homo sapiens, UniProt P12830); test: ITC + SEC; antibodies (25 μM) in the cell titrated with human E-cadherin EC12 (250 μM) in the syringe, 30 °C; the solution left in the cell was then run on Superose 12 in 10 mM HEPES, 150 mM NaCl, 3 mM CaCl2, pH 7.5
T7 construct: E-cadherin (cadherin-1), human, extracellular domains EC1-EC2; source: E. coli Rosetta2 (DE3), SUMO fusion, Ni-NTA, SUMO cleaved with Ulp1, SEC

[7] = biological target: T3, human P-cadherin EC12 K14E (residues …); test: SPR; scFv (100 nM) captured on anti-His6-tag antibody immobilised on a CM5 chip; P-cadherin construct as analyte (1.25-20 nM strand-swap dimer, 6.25-100 nM monomer); global fitting; the paper puts the lower KD for the strand-swap dimer down to an avidity effect
[8] = biological target: T4, human P-cadherin MEC12 K14E (additional …); test: as above
human P-cadherin MEC12 = biological target: T8, human P-cadherin MEC12 (human, UniProt P22223); test: ITC; antibodies (15-30 μM) in the cell titrated with cadherins (150-300 μM); 15 °C; one-site binding model
T8 construct: additional Met at the N-terminus of EC12; P-cadherin (cadherin-3), human, extracellular domains EC1-EC2; Fast exchange between monomer and X-dimer; also called X-dimer construct; source: E. coli Rosetta2 (DE3), SUMO fusion, Ni-NTA, SUMO cleaved with Ulp1, SEC

| binding result (human E-cadherin EC12 [1]) | stoichiometry N [2] | stoichiometry N [3] | stoichiometry N [4] | Kd [5] [nM] | koff [5] [s⁻¹] | kon [5] [M⁻¹ s⁻¹] | Kd (human P-cadherin MEC1) [nM] | binding result (human E-cadherin EC12 [6]) | Kd [7] [nM] | koff [7] [s⁻¹] | kon [7] [M⁻¹ s⁻¹] | Kd [8] [nM] | koff [8] [s⁻¹] | kon [8] [M⁻¹ s⁻¹] | stoichiometry N (human P-cadherin MEC12) | Binder |
| --- | --- | --- | --- | --- | --- | --- | --- | --- | --- | --- | --- | --- | --- | --- | --- | --- |
| no binding | 0.61 | 0.61 | 0.71 | 14 | 0.0039 | 280000 | – | – | – | – | – | – | – | – | – | TSP11 single-chain Fv (anti-human P-cadherin antibody) (scFv, V domains shown, VH of TSP11; flexible (Gly4-Ser)3 peptide linker between VH and VL; VL of TSP11; Construct pelB-VH-GS-linker-VL-His6 in pRA2) VH: QVQLQQPGTELVKPGASVKLSCKASGYTFTRYWINWVKQRPQGGLEWIGNIYPGSNITNYNEKFKNKATLTVDTSSNTAYMQLSSLTSDDSAVYYCAREGIYDGYFPLFPYWGQGTLVTVSA VL: ENVLTQSPAIMAASPGEKVTMTCSASSSVSSGNFHWYQQKPGTSPKLWIYRTSNLASGVPARFSGSGSGTSYSLTISSMEAEDAATYYCQQWSGYPWTFGGGTKLEIK |
| – | – | – | – | – | – | – | ~10 | no binding | – | – | – | – | – | – | – | TSP11 (anti-human P-cadherin antibody, scFv format) (scFv, V domains shown, VH of TSP11 (antibody from mice immunised with human P-cadherin EC1-EC5); flexible (Gly4-Ser)3 peptide linker; VL of TSP11; Construct pelB-VH-GS-linker-VL-His6 in pRA2; not shown: His6, C-terminal, kept) VH: QVQLQQPGTELVKPGASVKLSCKASGYTFTRYWINWVKQRPQGGLEWIGNIYPGSNITNYNEKFKNKATLTVDTSSNTAYMQLSSLTSDDSAVYYCAREGIYDGYFPLFPYWGQGTLVTVSA VL: ENVLTQSPAIMAASPGEKVTMTCSASSSVSSGNFHWYQQKPGTSPKLWIYRTSNLASGVPARFSGSGSGTSYSLTISSMEAEDAATYYCQQWSGYPWTFGGGTKLEIK |
| no binding | 0.71 | 0.74 | – | 8.7 | 0.026 | 3e+06 | – | – | 0.24 | 0.00015 | 620000 | 63 | 0.03 | 480000 | – | TSP7 single-chain Fv (anti-human P-cadherin antibody) (scFv, V domains shown, VH of TSP7; flexible (Gly4-Ser)3 peptide linker between VH and VL; VL of TSP7; Construct pelB-VH-GS-linker-VL-His6 in pRA2; Residue numbers run through the whole scFv (Asp229 and Arg234 lie in the VL); also called TSP7 (WT); TSP7 WT; not shown: His6, C-terminal, kept) VH: QVQLQESGPELVKPGASVKMSCKASGYSFTAYNMHWVKQSHGKSLEWIGFIDPYSGIITYNQTFKGKATLTVDKSSSTAYMQLNSLTSEDSAVYYCARRGYYDGGFDYWGQGTTLTVSS VL: DIQMTQTTSSLSASLGDRVTISCRASQDITNYLNWYQQKPDGTVKLLIYYTSRLHSGVPSRFSGSGSGTDYSLTISNLEQEDIATYFCQQDSKHPRTFGGGTKLEIK |
| – | – | – | – | – | – | – | ~10 | no binding | – | – | – | – | – | – | 1.5 | TSP7 (anti-human P-cadherin antibody, scFv format) (scFv, V domains shown, VH of TSP7 (antibody from mice immunised with human P-cadherin EC1-EC5); flexible (Gly4-Ser)3 peptide linker; VL of TSP7; Construct pelB-VH-GS-linker-VL-His6 in pRA2; also called TSP7 WT; not shown: His6, C-terminal, kept) VH: QVQLQESGPELVKPGASVKMSCKASGYSFTAYNMHWVKQSHGKSLEWIGFIDPYSGIITYNQTFKGKATLTVDKSSSTAYMQLNSLTSEDSAVYYCARRGYYDGGFDYWGQGTTLTVSS VL: DIQMTQTTSSLSASLGDRVTISCRASQDITNYLNWYQQKPDGTVKLLIYYTSRLHSGVPSRFSGSGSGTDYSLTISNLEQEDIATYFCQQDSKHPRTFGGGTKLEIK |
| – | – | – | – | – | – | – | – | – | 0.53 | 0.00039 | 730000 | 71 | 0.032 | 450000 | – | TSP7 S77R single-chain Fv (scFv, V domains shown, as the VH of Dm1 (TSP7, PDB 5JYL) with S77R; flexible (Gly4-Ser)3 peptide linker between VH and VL; as the VL of Dm1 (TSP7, PDB 5JYL); source: purified to homogeneity in a soluble monomeric form; not shown: His6, C-terminal, kept) VH: QVQLQESGPELVKPGASVKMSCKASGYSFTAYNMHWVKQSHGKSLEWIGFIDPYSGIITYNQTFKGKATLTVDKSSRTAYMQLNSLTSEDSAVYYCARRGYYDGGFDYWGQGTTLTVSS VL: DIQMTQTTSSLSASLGDRVTISCRASQDITNYLNWYQQKPDGTVKLLIYYTSRLHSGVPSRFSGSGSGTDYSLTISNLEQEDIATYFCQQDSKHPRTFGGGTKLEIK |
